Drawing on patent publication US20230322906A1, this text covers binding to trimeric Env protein relative to monomeric Env protein and fold decrease in binding against BG505.SOSIP Env for 11 molecules.

Some results are limits rather than exact numbers.

B1: 4513-11 (antibody, V domains shown)
VH: QVQLAQSGAEVKKPGSSVKVSCHVSGGTFSTYAINWVRQAPGHGPEWMGRITPISGATDYAQKFQARITISADESTSAAYLEVRTLRSDDTAVYYCARVGQPKFFERSSDGEHFQHWGQGTLVTVSS
VL: DIQMTQSPSTLSASVGDRTTITCRASQNIDKWLAWYQQKPGKAPTVLIFKASTLESGVPSRFSGSSSGTEFTLTIDNLQPEDSATYFCHQYSRYPWTFGQGTKVELK
B2: 4513-12 (antibody, V domains shown)
VH: QLQLQESGPGLVKPSETLALTCSVSGGSIFSSNYYWAWIRQPPGKGLEWMGSVYFSGTTFYNPSLKSRVIVSVDTAKNQFSLKLNSVSAADTAIYYCARDVRMRSGRPRQYCMDVWGKGTTVTVSS
VL: EVVLTQSPGTLSLSPGERATLSCRASQSVNSIYLAWYQQKPGQAPRLLIYGASNRAAGIPDRFSGSGSGTDFTLTIDRLEPEDFAVYYCQQYDTSPAVTFGPGTKVEIK
B3: 4513-14 (antibody, V domains shown)
VH: QVQLVQSGREVKKFGSSVRVSCKASGGSFDTYAISWVRQAPGQGLEWMGQITPMFGTSHMSQRFQGRLTIDTDDSTGTVFMDMRGLRTEDSATYYCAKDWSFDDDGGAYVPSAMDVWGQGTTVIVSS
VL: EIVLTQSPGTLSVSPGERATLSCKASQSISSSSLAWYRQTPGQTPTLLIYGTSTRATGIPDRFSGRGSGTDFTLTITNVKPEDFAVYYCQQYGSSPFTFGPGTRLDFR
B4: 4487-4 (antibody, V domains shown)
V domain 1: QVQLVQSGTELTKPGMSVKISCRASGTTFTRPYVHWVRQAPGQGLEWMGMINPTGVNVFSAQKFQGRVTMTRQTSTHTSFLELVSLTGDDTAVYYCATSSGVVSLRSAFDIWGQGTILIVSS
V domain 2: QSALSQPASVSGSLGQSITISCSGVGSDAVTYTVVSWYQQHPTKAPKIIISDGDKRPSGVSSRFSGSKSGNTAFLRISGLQTDDEALYYCCSYVGSNTWVFGGGTTVTVL
B5: 4487-5 (antibody, V domains shown)
VH: QMQLVQSGPEVRKPGSSVKVSCKASGGTFDNSAITWVRQAPGQGLEWMGGIIPFVGAAAYAQRFLGRATITADASTTSSYLELRGLTSDDTGVYFCARDGLRLNFYYYGMDVWGQGTPIIVSS
VL: QIVLTQSPGTLSLSPGDTATLSCRASQRVTHTHLAWYQQKPGQPPRLLIYATSQRATGIPDRFRGSGSGRDFTLTIASLEPEDFAVYYCQQNGESPRMFGQGTKLDVK
B6: 4591-2 (antibody, V domains shown)
VH: QVQLQQWGAGLLKPSETLSLTCDVSGGSFSDFYWSWVRQSPGKGLEWIGDINHSGSSNYIPSLDGRVTISVDTSRSQFSLNLTSVTAADTAIYFCARKVWPFNGMDVWSQGTTVTVSS
VL: ATQLTQSPSFLSASVGDRVTITCRASQGIRNFLAWYQQKPGKAPNLLIYAASTLQSGVPSRFAGSGSGTEFTLTINNVQPEDFATYYCQQLTNYATFGQGTKLEIQ
B7: 6420-35 (antibody, V domains shown)
VH: EVQLVESGGDLVQPGGSLRLSCLGSGFDFRTYGMNWVRQAPGKGLEWVSYISSTSSAIYYTDSIEGRFTISRDNGKNLLSLQMSSLRDEDTAVYYCARGGSLWFGREFHAMDVWGRGTTVTVSS
VL: QAVVTQEPSLTVSPGGTVTLTCGSSTGAVTSDHYPYWFQQKPGQAPRTLIYDTINRHSWAPARFSASLLGGKAALTLSGAQPEDEAEYYCLLSYSGARRVFGGGTKLTVL
B8: 6420-48.1 (antibody, V domains shown)
VH: EVQLVESGGGLVQPGGSLRLSCAASGFTFNTYEMNWVRQAPGKGLEWVSYISGTGNNIYYADSVKGRFTISRDNAKNSLYLQMDNLRAEDTAVYYCARGGQLWFGERLYFHFWGQGTLVAVSS
VL: DIQMSQSPSSLSASVGDRVTITCRASQSIGNNLNWYQQKPGKAPNLLIYAASNLQSGVPSRFSGSGSGTDFSLTISSLQPEDFTIYYCQQSFSTPITFGQGTRLEIK
B9: 6420-48.2 (antibody, V domains shown)
VH: EVQLVESGGGLVRPGGSLRLSCAASGFTFNTYEMNWVRQAPGKGLEWLSYISSTGNNIFYADSVKGRFTISRDNAKNSLYLQMNNVRTDDTALYYCARGGQLWFGERLNFQHWGQGTQVTVSS
VL: DIQMTQSPSSLSASVGDRVTITCRASQTISNNLNWYQQKPGKAPKFLIYSVSVLQSGVPSRFSGSGSGTDFTLTITSLQPEDFATYYCQQSHSTPLTFGQGTRLEIK
B10: 6420-233.1 (antibody, V domains shown)
VH: EVQLVESGGALVQPGGSLRLSCAASGFNFISYGMNWVRQAPGKGLEWISYISSASNTIYYADSVKGRFTISRDNAKNSLYLQMTSLRDGDSALYYCARDIVTIFFRGRSQHAFSVWGQGTAVAVSS
VL: SYVLTQPPSVSVAPGQTARITCGGNNIGSKNVHWYQQKPGQAPVLVVYDNSDRPSGVPERFSGSNSGNTATLTITRVEAGDEADYYCQVWDISSDHQVFGGGTKLTAL
B11: 6420-233.2 (antibody, V domains shown)
VH: EVQLVESGGGLVQPGGSLRLSCAASGFDFRTYSMNWVRQAPGKGLEWLSYISSTSATIYSADSVKGRFTISRDNAKNSVYLQMNSLRVDDTAVYFCARERITVFFRGRSQHASNVWGQGTMVTVSS
VL: SYVLTQAPSVSVAPGQTARITCGGDNIGNKNAHWYQQKPGQAPVLVVYDNSDRPSGIPERFSGSNSGNTATLTISRVEAGDEADYFCQVWDSSSDHQVFGGGTKLTVL

The first experiment has as its target trimeric Env protein (HIV-1 Env gp140 trimer antigens of the panel: ZM197, CNE55, CZA97). The experiment can be described thus: ELISA (AUC) on HIV-1 Env gp140 trimer and gp120 monomer panel.
Molecule B1 returned a binding to trimeric Env protein relative to monomeric Env protein above 3 times. For B2, the binding to trimeric Env protein relative to monomeric Env protein is above 3 times. Turning to B3, the binding to trimeric Env protein relative to monomeric Env protein was above 3 times. For B4, the binding to trimeric Env protein relative to monomeric Env protein is above 3 times. For B5, the binding to trimeric Env protein relative to monomeric Env protein is above 3 times.

A further experiment deals with BG505.SOSIP CD4bs variants (BG505.SOSIP.D368R, BG505.SOSIP.N279K, BG505.SOSIP.D368R/N279K (DKO)). The experiment is described as follows: ELISA AUC normalized to BG505.SOSIP.backbone. Background: In an ELISA, binding on a coated surface is turned into a signal by an enzyme label.
For the molecule B6, the fold decrease in binding against BG505.SOSIP Env is above 2 fold.

For the molecule B7, the fold decrease in binding against BG505.SOSIP Env is above 2 fold. Regarding B8, the fold decrease in binding against BG505.SOSIP Env was above 2 fold. Still for that read-out and setting: with B9 the figure was above 2 fold. The molecule B10 had a fold decrease in binding against BG505.SOSIP Env above 2 fold.

In turn, B11 had a fold decrease in binding against BG505.SOSIP Env above 2 fold.
